Our source for the Kd values is US20090030181A1 (KOREA RESEARCH INSTITUTE OF BIOSCIENCE AND BIOTECHNOLOGY, published 2009).

Usually Kd stands for a measure of binding affinity in units of concentration. High values mean weaker binding, low ones tighter binding.

For the test, the target named is T1, human mdm2 N-terminal domain, mdm2(3-109) (human, UniProt Q00987 3-109).
T1 construct: Expressed in E. coli BL21(DE3) from a pLM1 vector; Uniformly 15N-labelled (or 15N,13C-labelled) where it is the observed species in NMR; unlabelled when used as titrant and when immobilised on the CM5 chip
As to the kind of experiment: SPR (BIAcore 2000), mdm2(3-109) amine-coupled on CM5, peptide injected at 1.5625-50 µM, equilibrium fit.

Where no end group is shown, it is not given here.

T1 sequence (Q00987 3-109 limits assumed): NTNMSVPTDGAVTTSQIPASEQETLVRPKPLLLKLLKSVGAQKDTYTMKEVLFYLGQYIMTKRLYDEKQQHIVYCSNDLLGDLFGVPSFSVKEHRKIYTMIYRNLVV

B1: native p53 TAD(49-54) peptide (peptide)
peptide: DIEQWF-NH2
notes: Synthetic, solid phase; also called p53 (49-54); p53(49-54) peptide
Consider B1, for which binding was characterised by a dissociation constant (Kd) of 25 µM.
